Consider 1 protein from PMC5385842 (Science signaling, 2016).

This series concerns the molecule itself. Briefly: two-colour single-particle tracking.

B1: pre-B cell receptor (pre-BCR) on the surface of 697 cells (complex)
chain 1: GSASAPTLFPLVSCENSPSDTSSVAVGCLAQDFLPDSITFSWKYKNNSDISSTRGFPSVLRGGKYAATSQVLLPSKDVMQGTDEHVVCKVQHPNGNKEKNVPLPVIAELPPKVSVFVPPRDGFFGNPRKSKLICQATGFSPRQIQVSWLREGKQVGSGVTTDQVQAEAKESGPTTYKVTSTLTIKESDWLGQSMFTCRVDHRGLTFQQNASSMCVPDQDTAIRVFAIPPSFASIFLTKSTKLTCLVTDLTTYDSVTISWTRQNGEAVKTHTNISESHPNATFSAVGEASICEDDWNSGERFTCTVTHTDLPSPLKQTISRPKGVALHRPDVYLLPPAREQLNLRESATITCLVTGFSPADVFVQWMQRGQPLSPEKYVTSAPMPEPQAPGRYFAHSILTVSEEEWNTGETYTCVVAHEALPNRVTERTVDKSTEGEVSADEEGFENLWATASTFIVLFLLSLFYSTTVTLFKVK
chain 2: QPVLHQPPAMSSALGTTIRLTCTLRNDHDIGVYSVYWYQQRPGHPPRFLLRYFSQSDKSQGPQVPPRFSGSKDVARNRGYLSISELQPEDEAMYYCAMGARSSEKEEREREWEEEMEPTAARTRVP
chain 3: LLRPTAASQSRALGPGAPGGSSRSSLRSRWGRFLLQRGSWTGPRCWPRGFQSKHNSVTHVFGSGTQLTVLSQPKATPSVTLFPPSSEELQANKATLVCLMNDFYPGILTVTWKADGTPITQGVEMTTPSKQSNNKYAASSYLSLTPEQWRSRRSYSCQVMHEGSTVEKTVAPAECS
chain 4: LWMHKVPASLMVSLGEDAHFQCPHNSSNNANVTWWRVLHGNYTWPPEFLGPGEDPNGTLIIQNVNKSHGGIYVCRVQEGNESYQQSCGTYLRVRQPPPRPFLDMGEGTKNRIITAEGIILLFCAVVPGTLLLFRKRWQNEKLGLDAGDEYEDENLYEGLNLDDCSMYEDISRGLQGTYQDVGSLNIGDVQLEKP
chain 5: ARSEDRYRNPKGSACSRIWQSPRFIARKRGFTVKMHCYMNSASGNVSWLWKQEMDENPQQLKLEKGRMEESQNESLATLTIQGIRFEDNGIYFCQQKCNNTSEVYQGCGTELRVMGFSTLAQLKQRNTLKDGIIMIQTLLIILFIIVPIFLLLDKDDSKAGMEEDHTYEGLDIDQTATYEDIVTLRTGEVKWSVGEHPGQE
For orientation: koff means the first-order rate constant of dissociation. Read a low koff as slow dissociation. The term stoichiometry N denotes a count of units in the complex or per binding partner. Regarding B1, the koff was found to be 1.14 s⁻¹ and the “stoichiometry N” value came out at 2.
